Target: human neonatal Fc receptor (hFcRn) (human) (UniProt P55899)
Assay: SPR

Chain of UniProt P55899 (P55899 24-297, chain 1 of 2): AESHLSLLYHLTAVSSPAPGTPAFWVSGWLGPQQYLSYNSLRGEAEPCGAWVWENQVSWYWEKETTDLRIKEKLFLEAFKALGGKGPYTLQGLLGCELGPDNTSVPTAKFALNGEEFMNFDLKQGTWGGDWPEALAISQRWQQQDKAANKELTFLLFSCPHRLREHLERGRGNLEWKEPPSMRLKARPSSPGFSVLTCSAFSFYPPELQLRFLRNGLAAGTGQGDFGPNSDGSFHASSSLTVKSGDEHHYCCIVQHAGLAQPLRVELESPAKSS
Chain of UniProt P55899 (P61769 21-119, chain 2 of 2, further chain): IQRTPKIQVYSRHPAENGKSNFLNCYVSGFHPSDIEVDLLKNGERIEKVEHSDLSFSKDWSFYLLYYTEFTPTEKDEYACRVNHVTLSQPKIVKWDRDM

## 3F6-hIgG1 (antibody)
  Kd: 538 nM

From article PMC8795526
